Experimental data reported in patent publication US11959098B2, “Methods and culture media for culturing pluripotent stem cells” (Technion Research & Development Foundation Limited, priority 2010, dated 2024).
Entries after “also recorded” stand apart in the source; their conditions may differ.

B1: activin A: activin A at concentration of 10 ng/ml added for endoderm differentiation (protein, UniProt P08476 311-426, looked up)
Inhibin beta A chain: GLECDGKVNICCKKQFFVSFKDIGWNDWIIAPSGYHANYCEGECPSHIAGTSGSSLSFHSTVINHYRMRGHSPFANLKSCCVPTKLRPMSMLYYDDGQNIIKKDIQNMIVEECGCS
modifications: Inhibin beta A chain
B2: Noggin: Noggin (10 ngr/ml) added to induce neural differentiation (protein, UniProt Q13253 28-232, looked up)
Noggin: QHYLHIRPAPSDNLPLVDLIEHPDPIFDPKEKDLNETLLRSLLGGHYDPGFMATSPPEDRPGGGGGAAGGAEDLAELDQLLRQRPSGAMPSEIKGLEFSEGLAQGKKQRLSKKLRRKLQMWLWSQTFCPVLYAWNDLGSRFWPRYVKVGSCFSKRSCSVPEGMVCKPSKSVHLTVLRWRCQRRGGQRCGWIPIQYPIISECKCSC

Assays:
[1] = tested on: C2 cell line (iPS cell line derived from foreskin fibroblast); experiment: Endodermal differentiation of pluripotent stem cells cultured in suspension; type: cell-based, human
Description: Differentiation into endodermal cells—Cells cultured in suspension with cell clumps from C2 cell line (iPS cell line derived from foreskin fibroblast) were cultured in suspension for at least 10 passages. Then the factors were removed from the culture medium and the cells were exposed to 10 ng/ml Activin for 48 hours, in medium containing cAMP increasers such as foreskulin, 8-bromocAMP, GABA, IBMX and DBC. Ten days later the cells were analyzed for endodermal markers. […] As shown in FIGS. 10A-10B the differentiated cells express PDX1, a transcription factor indicating differentiation into endoderm lineage, mainly into β-cells.
C2 cells were cultured for more than 10 passages as single cells in suspension in the pCM100F culture medium. For endoderm differentiation, the bFGF and the IL6RIL6 chimera were removed from the culture medium and activin A at concentration of 10 ng/ml was added for 48 hours in a suspension culture. 10 days after exposure to activin A, the cells were plated on Matrigel™ or HFF (human foreskin fibroblast) matrix, or were cultured in a 3-dimensional culture system (in suspension) and were stained to PDX1.

[2] = tested on: hESCs cultured in suspension; experiment: Neural differentiation of pluripotent stem cells cultured in suspension; type: cell-based, human; conditions: hESC single cells; retinoic acid (10^−3 M) or Noggin (10 ngr/ml); three weeks after induction
Description: Neural differentiation—To induce neural differentiation single cells cultured in suspension were transferred to a medium without bFGF and the IL6RIL6 chimera. Either retinoic acid (10^−3 M) or Noggin (10 ngr/ml) were added for three to seven days. Three weeks after differentiation induction, the cells were plated for staining with fibronectin. The cells were stained for O4 (oligodendrocytes marker), GFAP (Glial fibrillary acidic protein), nestin and β-tubulin.
Differentiation into neuronal cells—Cells from the four tested cell lines (I3, I4, I6 and H9.2) were cultured in suspension with cell clump for at least 25 passages. Then, the factors were removed from the culture medium and 5×10^−5 M Retinoic acid was added for 21 Days. The cells were then transferred to fibronectin coated plates and cultured for additional 5 days before harvesting the cells for analysis.
Human ESCs which are cultured in suspension as single cells are capable of differentiating into the neuronal cell linage—To induce neural differentiation, hESCs which are cultured in suspension as single cells were transferred to a neuronal differentiating medium (without bFGF and the IL6RIL6 chimera) which included either retinoic acid (10^−3 M) or Noggin (10 ngr/ml) as described under “General Materials and Experimental Methods” hereinabove. […]

[3] = C2 clumps, 10 ng/ml for 48 hours with cAMP increasers, ten days later

Row | Molecule | PDX1 expression (immunofluorescence) [1, 3] | Sox17 expression (quantitative RT-PCR) versus non-treated controls [1, 3] | SOX 17 gene expression (real time PCR) ([1]; C2 single cells, 10 ng/ml for 48 hours in suspension) | PDX1 expression (immunostaining) ([1]; C2 single cells, 10 ng/ml for 48 hours, 10 days after exposure) | differentiation into neuronal progenitor cells (GFAP, O4, β-Tubulin, Nestin staining) [2]
1 | B1 | express PDX1 | significant increase in Sox17 expression | an increase could be observed during differentiation from day 2 to 10 | all cells which are stained by DAPI (nuclear staining) are also stained with PDX1; also recorded: expression of PDX1 in the cells | 
2 | B2 |  |  |  |  | differentiated into neuronal progenitor cells
